Measurements taken from patent US10138280B2, “Polypeptides targeting glycosylated MUC2 proteins, methods of synthesis, their nucleic acids and uses thereof” (INSTITUT PASTEUR, priority 2011, dated 2018).
No end group written: not given here.

Legend:
[1] = test system: human neutrophil (PMN) granules; test: Human neutrophil (PMN) granule staining; type: cell-based; settings: for PMN granule staining: PMN purified from human blood, fixed in 4% PFA, 1 μg/mL; for signal brightness of PMN granule staining: fixed PMN, compared among Cy5-MUB40 probes
Protocol: FIG. 14. Staining of individual neutrophiles (white blood cells) in human blood sample. Cy5-MUB70 was incubated on ethanol 100% fixed blood sample. […] (Details are provided on the Figure). […] In particular, granules staining is achieved.
FIG. 15. Staining of individual neutrophiles (white blood cells) purified from fresh human blood sample. Cy5-MUB70 was incubated on PFA 4% fixed neutrophiles (PFA treatment for 15 min, wash 3 times in PBS). Signal was detected as dots distributed in neutrophile cytoplasms. (Staining with Dapi 1:1000 and EB1C5 1:1000 in PBS+10% FCS+0.1% Saponin). […] In particular, granules staining is achieved.
FIG. 29. Identification of Muc2 in neutrophile granules using MUB70-Cy5. Human neutrophil (PMN) granule staining using Cy5-MUB70. PMN were purified from healthy donor blood samples and fixed in the presence of 4% PFA. Fluorescent staining of human colonic mucus was performed by the addition of 1 μg/mL of Cy5-MUB70 (Red) with Dapi (1:100) (Blue) and 1:200 anti-Muc2 antibody (Green). Image acquisition was performed using a fluorescent confocal microscope (see Methods).
FIG. 31. Identification of Muc2 in neutrophile granules. Human neutrophil (PMN) granule staining using Cy5-MUB40-1, Cy5-MUB40-2, Cy5-MUB40-3, Cy5-MUB40-4 peptides. Schematic description of the Cy5-conjugated peptides. PMN were purified from healthy donor blood samples and fixed in the presence of 4% PFA. Fluorescent staining of human colonic mucus was performed by the addition of 1 μg/mL of the Cy5-conjugated peptides (Green) with Dapi (1:100) (Blue) and Phalloidin-RRX (1:1000) (Red). Image acquisition was performed using a fluorescent confocal microscope (see Methods).
The invention has also proven to be useful for the monitoring of neutrophile degranulation events, in particular by using MUB70 and/or MUB40 polypeptides or polypeptides sharing identity with MUB70 and/or MUB40 polypeptides, or fragments thereof, for labelling neutrophile granule(s).

[2] = target: T1, human colonic mucus (Muc2) (Homo sapiens, UniProt Q02817); test: Immunofluorescent staining of human mucus and fixed human colon samples; settings: human mucus extract collected on ex vivo tissues
T1 construct: Segments of human colon (ascending, descending and sigmoid colon) were obtained from fully informed patients undergoing surgery; from tissue; host or cells: healthy human colon segments (live explants, mucus collected from them, Carnoy- or formol-fixed sections)
Description: (§1) FIGS. 4A-4B. Cy5-MUB70 is specifically binding to the glycosylated moiety of Muc2 secreted in the colon mucus layer. (FIG. 4A) Immunodetection of Muc2, Muc5ac, Muc5b and Muc6 (dotblot analysis) on human mucus extracts eluted after a pulldown assay performed with biot-MUB70 on avidin conjugated beads (see Methods). Biotin is used as a negative control. Immunodetection of Muc2 (dotblot analysis) on deglycosylated mucus extracts eluted after a pulldown assay performed with biot-MUB70 on avidin conjugated beads. Non-deglycosylated mucus extract is used as a positive control. (FIG. 4B) Co-localization of Muc2 (green) and Cy5-MUB (blue) observed on fixed (Carnoy) human colon samples. Actin is stained in red (Phall.RRX). Observations are performed using a confocal microscope. Bars is 20 μm.
FIGS. 9A-9B. (FIG. 9A) Co-localization of Muc2 (green) and Cy5-MUB (blue) performed by immunofluorescent detection on human mucus extract collected on ex vivo tissues using an epifluorescent microscope. Bar is 50 μm. […]
For immunofluorescence assay mouse α-MUC2 pAbs (Santa Cruz sc-15334) was diluted 1:1000 and FITC-conjugated rabbit anti-mouse was diluted 1:2000. Host cells were detected with DAPI (nuclei, […]) or using Phalloidin-Rhodamine red X (RRX)-conjugated donkey anti-mouse antibodies (Jackson Immunoresearch Antibodies) as an actin marker (stained red); both were used at a final dilution of 1:1000. […]

[3] = target: T2, human colonic mucus and goblet cells (Homo sapiens, UniProt Q02817); test: Fluorescent staining of healthy human colon, formol fixed, paraffin embedded samples; settings: fixed samples, 1 μg/mL
T2 construct: Segments of human colon (ascending, descending and sigmoid colon) were obtained from fully informed patients undergoing surgery; from tissue; host or cells: healthy human colon segments (live explants, mucus collected from them, Carnoy- or formol-fixed sections)
Protocol: FIG. 22. Schematic description of the Cy5-MUB40-1, Cy5-MUB40-2, Cy5-MUB40-3, Cy5-MUB40-4 peptides (SEQ ID NOS 62 to 65). Fluorescent staining of human colonic mucus was performed by the addition of 1 μg/mL of the corresponding Cy5-conjugated peptides with Phalloidin-RRX (1:100) on formol fixed, paraffin embedded samples. Image acquisition was performed using a fluorescent confocal microscope (see Methods).
FIG. 23 Comparative staining analysis of human colonic goblet cells using Cy5-MUB70 and Cy5-MUB40-1. Fluorescent staining of human colonic mucus was performed by the addition of 1 μg/mL of the corresponding Cy5-conjugated peptides with Phalloidin-RRX (1:100) on formol fixed, paraffin embedded samples. Image acquisition was performed using a fluorescent confocal microscope (see Methods).
FIGS. 24A-24B. Comparative human colonic mucus staining using MUB70-Cy5 on healthy tissues and mucinous carcinomas (Coic et al, JBC, 2012 (41)). Fluorescent staining of human colonic mucus was performed by the addition of 1 μg/mL of the corresponding Cy5-conjugated peptides with Phalloidin-RRX (1:100) on formol fixed, paraffin embedded samples. Image acquisition was performed using a fluorescent confocal microscope (see Methods).
As colonic mucinous carcinomas are characterized by abnormal overproduction of Muc2 in the colon mucosa (40), the inventors have hypothesized that Cy5-MUB70 could be used as a novel fluorescent marker for the diagnosis of this pathology. […] As shown previously on a healthy colon (FIG. 3B), the luminal mucus secreted fraction is detected by Cy5-MUB70 (FIG. 24A, top panel). […] This observation might be the consequence of a higher level of mucus compaction, resulting in a lower accessibility for MUB70 to bind Muc2. […] Cy5-MUB70 has been validated as a potent innovative diagnostic tool for colonic mucinous carcinoma detection and might be optimized with alternative markers (e.g. biotin) for practical clinical applications.

[4] = target: T3, Muc2 (Homo sapiens, UniProt Q02817); test: Pulldown assay with dot blot immunodetection, Muc2; type: binding
T3 construct: human colonic mucus extracts (produced in vitro from differentiated HT-29 MTX cells, see Methods); endogenous in cells; host or cells: HT-29 MTX human colonic epithelial cells, differentiated (21 days)

[5] = target: T4, Muc5ac (Homo sapiens, UniProt P98088); test: Pulldown assay with dot blot immunodetection, Muc5ac; type: binding; settings: soluble human colonic mucus extract from HT-29 MTX; detected in the input
T4 construct: soluble human colonic mucus extracts were initially obtained from HT-29 MTX cell secretion product; endogenous in cells; host or cells: HT-29 MTX cells (secreted mucus, soluble fraction)
Description: as §1, with “μm. […]” for “μm.”
(§2) Soluble mucus components used in pulldown assays (input and output) were transferred to nitrocellulose membranes (Invitrogen), which were blocked in PBS/5% milk and further incubated with the primary antibodies diluted in PBS/1% milk/0.01% Tween20 (Sigma-Aldrich) overnight. […] Antibody binding was detected with chemiluminescence (ECL kit, GE Healthcare).

[6] = target: T5, Muc5b (Homo sapiens, UniProt Q9HC84); test: Pulldown assay with dot blot immunodetection, Muc5b; type: binding; settings: soluble human colonic mucus extract from HT-29 MTX; detected in the input
T5 construct: soluble human colonic mucus extracts were initially obtained from HT-29 MTX cell secretion product; endogenous in cells; host or cells: HT-29 MTX cells (secreted mucus, soluble fraction)
Description: as §1, with “μm. […]” for “μm.”
as §2

[7] = target: T6, Muc6 (Homo sapiens, UniProt Q6W4X9); test: Pulldown assay with dot blot immunodetection, Muc6; type: binding; settings: soluble human colonic mucus extract from HT-29 MTX; detected in the input
T6 construct: soluble human colonic mucus extracts were initially obtained from HT-29 MTX cell secretion product; endogenous in cells; host or cells: HT-29 MTX cells (secreted mucus, soluble fraction)
Description: as §1, with “μm. […]” for “μm.”
as §2

[8] = Analytical gel filtration for quaternary structure; type: physicochemical; settings: gel filtration at 0.1 and 1 mg/ml; phosphate buffer
Protocol: FIGS. 7A-7D. Biochemical properties of MUB70. (FIG. 7A) MUB70 total charge was calculated using Protein Calculator program (Scripps website). (FIG. 7B) Kytes and Doolittle hydropathy profile of MUB70 was generated using ExPASy bioinformatical tools. (FIG. 7C) Validation of biot-MUB70 purity by gel filtration chromatography on Superdex 200 5/150 GL column. (FIG. 7D) Partition coefficients (Kav) of the standard proteins (ferritin, 440 kDa; aldolase, 158 kDa; ovalbumin, 43 kDa; ribonuclease A, 13.7 kDa; aprotinin, 6.5 kDa) were calculated according to Kav=(Ve−V0)/(Vt−V0) (Ve, elution volume; V0, void volume; Vt, total volume of the gel bed) and plotted against the corresponding molecular masses. The molecular mass of biot-MUB70 calculated using the calibration curve equation: log(Mr)=3.12−3.1 Kav.
[…] Standard proteins from the gel filtration calibration kit (ferritin, aldolase, ovalbumin, ribonuclease A, aprotinin; GE Healthcare, Uppsala, Sweden) were used for calibration. As control biot-MUB70 was visualized on 10% SDS-PAGE gel stained by Coomassie.
The theoretical molecular weight (MW) of a biotinylated MUB70 (biot-MUB70) is 8.8 kDa. […] This observation was confirmed with the fluorescent Cy5-MUB70 compound (data not shown). […] The elution profile was recorded at 280 nm. […]

T6 sequence (Q6W4X9 23-2439): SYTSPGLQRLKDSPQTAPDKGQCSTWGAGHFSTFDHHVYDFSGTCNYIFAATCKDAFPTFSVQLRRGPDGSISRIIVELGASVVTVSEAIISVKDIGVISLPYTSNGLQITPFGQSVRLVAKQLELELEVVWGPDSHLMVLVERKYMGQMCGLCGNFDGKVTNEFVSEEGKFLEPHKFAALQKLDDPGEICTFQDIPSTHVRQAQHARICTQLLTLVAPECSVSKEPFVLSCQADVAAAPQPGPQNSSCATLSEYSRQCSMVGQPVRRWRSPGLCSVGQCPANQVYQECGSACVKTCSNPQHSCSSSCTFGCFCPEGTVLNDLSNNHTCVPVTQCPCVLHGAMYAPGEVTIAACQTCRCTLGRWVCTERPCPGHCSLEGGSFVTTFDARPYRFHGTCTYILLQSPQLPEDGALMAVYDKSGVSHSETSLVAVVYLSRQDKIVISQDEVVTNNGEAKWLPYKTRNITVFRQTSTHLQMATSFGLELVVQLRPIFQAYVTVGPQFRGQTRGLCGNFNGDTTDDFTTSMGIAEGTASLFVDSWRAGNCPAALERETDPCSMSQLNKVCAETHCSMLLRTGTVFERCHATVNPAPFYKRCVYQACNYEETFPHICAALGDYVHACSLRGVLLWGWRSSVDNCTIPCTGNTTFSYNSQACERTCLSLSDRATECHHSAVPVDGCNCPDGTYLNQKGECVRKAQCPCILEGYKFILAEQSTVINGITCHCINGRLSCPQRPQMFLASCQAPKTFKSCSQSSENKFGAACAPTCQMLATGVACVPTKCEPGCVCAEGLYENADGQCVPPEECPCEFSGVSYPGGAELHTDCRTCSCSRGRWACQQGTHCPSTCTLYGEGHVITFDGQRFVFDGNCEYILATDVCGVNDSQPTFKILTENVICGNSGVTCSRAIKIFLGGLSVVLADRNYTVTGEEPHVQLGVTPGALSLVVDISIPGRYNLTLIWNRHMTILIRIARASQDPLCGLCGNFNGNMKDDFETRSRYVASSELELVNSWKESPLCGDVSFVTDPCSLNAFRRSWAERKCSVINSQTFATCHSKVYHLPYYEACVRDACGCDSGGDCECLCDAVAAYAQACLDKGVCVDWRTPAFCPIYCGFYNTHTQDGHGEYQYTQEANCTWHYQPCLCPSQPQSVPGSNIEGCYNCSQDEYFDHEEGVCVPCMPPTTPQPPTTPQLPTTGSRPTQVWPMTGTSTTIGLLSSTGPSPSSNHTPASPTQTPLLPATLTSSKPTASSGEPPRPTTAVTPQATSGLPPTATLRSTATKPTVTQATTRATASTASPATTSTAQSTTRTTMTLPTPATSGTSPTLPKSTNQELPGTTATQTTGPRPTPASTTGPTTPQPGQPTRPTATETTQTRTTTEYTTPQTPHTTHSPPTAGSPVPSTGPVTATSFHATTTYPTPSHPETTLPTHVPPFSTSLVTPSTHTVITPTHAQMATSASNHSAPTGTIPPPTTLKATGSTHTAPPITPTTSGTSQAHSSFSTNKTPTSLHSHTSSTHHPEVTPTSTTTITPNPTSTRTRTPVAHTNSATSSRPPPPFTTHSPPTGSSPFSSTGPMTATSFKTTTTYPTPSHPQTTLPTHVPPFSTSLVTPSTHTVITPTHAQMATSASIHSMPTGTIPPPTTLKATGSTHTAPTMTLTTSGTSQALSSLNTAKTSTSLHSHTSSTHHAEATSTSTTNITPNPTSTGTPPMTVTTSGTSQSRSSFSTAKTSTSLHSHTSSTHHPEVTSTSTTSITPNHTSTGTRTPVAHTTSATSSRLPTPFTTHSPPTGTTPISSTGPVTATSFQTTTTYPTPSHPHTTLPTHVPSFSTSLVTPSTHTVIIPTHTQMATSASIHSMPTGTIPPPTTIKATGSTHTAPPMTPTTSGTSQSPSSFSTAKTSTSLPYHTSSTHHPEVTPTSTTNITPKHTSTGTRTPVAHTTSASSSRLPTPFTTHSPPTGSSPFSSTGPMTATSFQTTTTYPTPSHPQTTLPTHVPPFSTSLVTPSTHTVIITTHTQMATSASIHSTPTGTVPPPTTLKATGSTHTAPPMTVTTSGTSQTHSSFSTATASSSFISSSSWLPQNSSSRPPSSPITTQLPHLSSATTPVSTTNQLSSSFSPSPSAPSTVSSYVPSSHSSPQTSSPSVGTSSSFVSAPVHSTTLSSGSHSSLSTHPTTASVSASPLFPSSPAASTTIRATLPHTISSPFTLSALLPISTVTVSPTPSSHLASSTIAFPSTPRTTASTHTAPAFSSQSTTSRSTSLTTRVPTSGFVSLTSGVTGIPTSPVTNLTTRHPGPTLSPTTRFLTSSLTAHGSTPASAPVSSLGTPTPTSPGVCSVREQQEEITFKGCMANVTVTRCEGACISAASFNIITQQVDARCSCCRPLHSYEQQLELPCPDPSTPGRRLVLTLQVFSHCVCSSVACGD

For “Cy5-MUB40-3: Cy5-conjugated MUB40-3 peptide with N-terminal cysteine (SEQ ID NO: 64) (C(Cy5)DQMLRQDDLDGYTDETIPYSTAEGIKKFEGDGYELFKDNF; not fully specified)”, the PMN granule staining [1] was “efficiently stained”.

With CCN1/C(=C/C=C/C=C/C2=[N+](CCCCCC(=O)O)c3ccc(S(=O)(=O)O)cc3C2(C)C)C(C)(C)c2cc(S(=O)(=O)[O-])ccc21 [Cy5, reference compound] the human mucus binding [2] was “does not have the property to bind human mucus”.

In the case of “Cy5-MUB40-4: Cy5-conjugated MUB40-4 peptide with N-terminal cysteine (SEQ ID NO: 65) (C(Cy5)VHVQYIDGETDQMLRQDDLDGYTDETIPYSTAEGIKKFEG; not fully specified)”, the PMN granule staining [1] is reported as “efficiently stained” and the “signal brightness of PMN granule staining” value [1] is reported as “brighter signal”.

With “Cy5-MUB40-2: Cy5-conjugated MUB40-2 peptide with N-terminal cysteine (SEQ ID NO: 63) (C(Cy5)GYTDETIPYSTAEGIKKFEGDGYELFKDNFPAGEKFDNDD; not fully specified)” the PMN granule staining [1] was “efficiently stained”.

For “Cy5-MUB40-1: Cy5-conjugated MUB40-1 peptide with N-terminal cysteine (SEQ ID NO: 62) (C(Cy5)TAEGIKKFEGDGYELFKDNFPAGEKFDNDDTNDQFYTVIF; not fully specified)”, the PMN granule staining [1] was “efficiently stained”, the “signal brightness of PMN granule staining” value [1] was “brighter signal” and the goblet cells binding ([3]; human colonic goblet cells) was “possessing globlet-cells binding properties”. For the same molecule, the human mucus binding ([3]; human colonic mucus) was “functional human mucus-binding peptide”.

B1: biot-MUB70: biotinylated form of MUB70 (maleimide-PEG2-biotin on N-terminal cysteine) (conjugate)
peptide: CVHVQYIDGETDQMLRQDDLDGYTDETIPYSTAEGIKKFEGDGYELFKDNFPAGEKFDNDDTNDQFYTVIF
In the case of B1, the “Muc2 interaction after chemical deglycosylation of mucus extract” value ([4]; chemically deglycosylated mucus extract) is reported as “abolished the interaction”, the “Muc2 interaction after desulfatation of mucus extract” value ([4]; desulfatation (glycosylsulfatase)) is reported as “loss of this interaction” and the “Muc2 in eluted fraction of pulldown” value ([4]; soluble human colonic mucus extract from HT-29 MTX, avidin beads) is reported as “immunodectected in the eluted fraction”. For the same molecule, the “Muc5ac in eluted fraction of pulldown” value [5] was “absent from the eluted fraction”, the “Muc5b in eluted fraction of pulldown” value [6] was “absent from the eluted fraction” and the “Muc6 in eluted fraction of pulldown” value [7] was “absent from the eluted fraction”. The quaternary structure [8] was “exists as trimer”.
